US9163330B2, “Bifunctional stapled polypeptides and uses thereof” (President and Fellows of Harvard College, priority 2009, dated 2015)
Positions of bridges follow the written chain, without caps; N, C: chain ends. Non-standard residues stand in square brackets, D forms with d. No end group written: not given here. S5 = C=CCCC[C@](C)(N)C(=O)O; βAla = NCCC(=O)O

System: Hela cells
Assay: Confocal microscopy of Hela cells treated with FITC-conjugated SID-series peptides
Format: cell-based
Settings: FITC-conjugated peptide, 10 μM, 6 hours, 37° C.
Description: HeLa cells were grown on chamber slides overnight. 10 mM FITC-SID peptides in DMSO stock solutions were diluted in cell media to a final concentration of 10 μM, along with a 10 μM DMSO control. Cells were incubated in peptide/vehicle solutions at 37° C. for 6 hours, then washed thoroughly with media and PBS, and fixed with 4% paraformaldehyde. Slides were stained with Vectashield™ Hardset with DAPI. Images were taken with a Zeiss 710 confocal microscope.

Substance | cellular penetration
βAla-VRRRIQMLLEAANK*ERR*R ([βAla]VRRRIQMLLEAANK[S5]ERR[S5]R; staple 16-20) [SID5] | robust cellular penetration
βAla-VRRRI*MLL*AANYLER ([βAla]VRRRI[S5]MLL[S5]AANYLER; staple 7-11) [SID2] | robust cellular penetration
